In patent US20200147230A1:

What was measured:
[1] = biological target: murine nucleolin (in Colon 26 / C26 murine colon carcinoma cells) (murine) (UniProt P09405); experiment: fixed cell assay on fixed, permeabilised murine C26 cells; negative control
human nucleolin (human) = human nucleolin (human) (UniProt P19338); experiment: fixed cell assay on fixed, permeabilised Raji cells; negative control, ambiguous fit
Chain of UniProt P19338 (P19338 2-710 limits assumed): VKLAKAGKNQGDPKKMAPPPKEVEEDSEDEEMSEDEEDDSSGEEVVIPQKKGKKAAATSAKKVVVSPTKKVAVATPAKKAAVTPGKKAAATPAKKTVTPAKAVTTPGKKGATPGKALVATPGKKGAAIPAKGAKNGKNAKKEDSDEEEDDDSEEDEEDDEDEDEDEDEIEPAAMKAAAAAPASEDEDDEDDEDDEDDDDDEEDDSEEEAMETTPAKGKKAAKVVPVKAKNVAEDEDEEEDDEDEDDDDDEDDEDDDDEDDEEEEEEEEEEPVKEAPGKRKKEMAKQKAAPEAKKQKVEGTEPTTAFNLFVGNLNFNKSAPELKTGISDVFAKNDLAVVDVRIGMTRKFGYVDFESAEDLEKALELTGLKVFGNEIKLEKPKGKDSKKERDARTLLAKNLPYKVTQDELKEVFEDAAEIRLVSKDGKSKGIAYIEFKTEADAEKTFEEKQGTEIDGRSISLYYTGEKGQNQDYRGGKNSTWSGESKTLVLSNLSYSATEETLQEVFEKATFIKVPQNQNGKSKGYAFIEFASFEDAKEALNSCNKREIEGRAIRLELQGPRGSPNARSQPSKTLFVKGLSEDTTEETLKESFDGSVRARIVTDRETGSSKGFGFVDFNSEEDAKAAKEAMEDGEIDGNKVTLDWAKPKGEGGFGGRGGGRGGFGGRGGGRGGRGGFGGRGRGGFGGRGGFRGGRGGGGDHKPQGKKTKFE

Chain of UniProt P09405 (P09405 2-707): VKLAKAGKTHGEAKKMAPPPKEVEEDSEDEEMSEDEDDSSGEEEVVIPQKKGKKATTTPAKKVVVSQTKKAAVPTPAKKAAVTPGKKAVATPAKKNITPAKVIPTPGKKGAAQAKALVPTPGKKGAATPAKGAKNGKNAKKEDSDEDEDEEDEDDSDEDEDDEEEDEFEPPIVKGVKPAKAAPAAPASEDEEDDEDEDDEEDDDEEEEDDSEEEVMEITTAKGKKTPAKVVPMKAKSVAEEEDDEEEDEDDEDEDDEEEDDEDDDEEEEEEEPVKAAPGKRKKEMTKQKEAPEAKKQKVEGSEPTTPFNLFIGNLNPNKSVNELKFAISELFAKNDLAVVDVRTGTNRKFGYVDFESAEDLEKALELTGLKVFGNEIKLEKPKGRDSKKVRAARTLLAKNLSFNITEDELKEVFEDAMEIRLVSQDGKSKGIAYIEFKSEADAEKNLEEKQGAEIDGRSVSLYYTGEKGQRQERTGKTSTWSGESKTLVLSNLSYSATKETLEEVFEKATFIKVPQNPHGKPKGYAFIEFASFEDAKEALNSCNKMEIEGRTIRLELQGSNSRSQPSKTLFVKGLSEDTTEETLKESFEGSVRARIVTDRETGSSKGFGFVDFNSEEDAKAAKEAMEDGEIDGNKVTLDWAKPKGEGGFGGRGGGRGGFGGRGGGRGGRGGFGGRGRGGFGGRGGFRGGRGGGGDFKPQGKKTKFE

Kd [1]: 33.3 µM
Kd (human nucleolin (human)): 1.3 µM
Substance: IgG1 isotype control antibody
